Experiment [1] deals with ROR112 shuffle variant (Ig-like domain and CRD of ROR1, kringle domain of ROR2) (human (ROR1/ROR2 chimera)) (UniProt Q01973). Nature of the experiment: cell imaging (CellInsight) on CHO cells expressing the shuffle construct.
Experiment [2] has as its target ROR122 shuffle variant (Ig-like domain of ROR1, CRD and kringle domain of ROR2) (human (ROR1/ROR2 chimera)) (UniProt Q01973). The experiment is described as above.

ROR122 shuffle variant (Ig-like domain of ROR1, CRD and kringle domain of ROR2) (human (ROR1/ROR2 chimera)), sequence (Q01973 other isoform, or with tags, fused parts or gaps mutant limits assumed): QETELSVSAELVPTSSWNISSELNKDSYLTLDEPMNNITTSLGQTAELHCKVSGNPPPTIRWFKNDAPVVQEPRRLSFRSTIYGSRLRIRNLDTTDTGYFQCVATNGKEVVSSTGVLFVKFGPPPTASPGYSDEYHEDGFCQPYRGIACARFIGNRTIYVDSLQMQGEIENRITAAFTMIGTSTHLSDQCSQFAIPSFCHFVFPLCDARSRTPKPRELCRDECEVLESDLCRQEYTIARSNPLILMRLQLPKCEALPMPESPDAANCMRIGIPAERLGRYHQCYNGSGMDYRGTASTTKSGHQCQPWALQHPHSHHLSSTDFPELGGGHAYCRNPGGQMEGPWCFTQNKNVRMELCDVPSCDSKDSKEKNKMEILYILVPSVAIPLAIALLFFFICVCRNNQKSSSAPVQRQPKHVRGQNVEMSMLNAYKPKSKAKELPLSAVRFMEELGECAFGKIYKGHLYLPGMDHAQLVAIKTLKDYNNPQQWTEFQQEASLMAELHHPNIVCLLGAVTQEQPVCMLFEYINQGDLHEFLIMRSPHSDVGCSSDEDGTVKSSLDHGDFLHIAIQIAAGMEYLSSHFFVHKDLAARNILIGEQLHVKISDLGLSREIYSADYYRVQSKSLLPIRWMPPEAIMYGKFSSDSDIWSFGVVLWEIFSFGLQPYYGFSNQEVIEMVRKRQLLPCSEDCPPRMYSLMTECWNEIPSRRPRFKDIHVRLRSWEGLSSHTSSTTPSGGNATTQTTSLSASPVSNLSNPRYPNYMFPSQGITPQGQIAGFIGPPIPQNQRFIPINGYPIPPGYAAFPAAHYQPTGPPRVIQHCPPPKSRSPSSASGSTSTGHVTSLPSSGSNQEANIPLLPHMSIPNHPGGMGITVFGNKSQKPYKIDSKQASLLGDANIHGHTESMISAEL
ROR112 shuffle variant (Ig-like domain and CRD of ROR1, kringle domain of ROR2) (human (ROR1/ROR2 chimera)), sequence (Q01973 other isoform, or with tags, fused parts or gaps mutant limits assumed): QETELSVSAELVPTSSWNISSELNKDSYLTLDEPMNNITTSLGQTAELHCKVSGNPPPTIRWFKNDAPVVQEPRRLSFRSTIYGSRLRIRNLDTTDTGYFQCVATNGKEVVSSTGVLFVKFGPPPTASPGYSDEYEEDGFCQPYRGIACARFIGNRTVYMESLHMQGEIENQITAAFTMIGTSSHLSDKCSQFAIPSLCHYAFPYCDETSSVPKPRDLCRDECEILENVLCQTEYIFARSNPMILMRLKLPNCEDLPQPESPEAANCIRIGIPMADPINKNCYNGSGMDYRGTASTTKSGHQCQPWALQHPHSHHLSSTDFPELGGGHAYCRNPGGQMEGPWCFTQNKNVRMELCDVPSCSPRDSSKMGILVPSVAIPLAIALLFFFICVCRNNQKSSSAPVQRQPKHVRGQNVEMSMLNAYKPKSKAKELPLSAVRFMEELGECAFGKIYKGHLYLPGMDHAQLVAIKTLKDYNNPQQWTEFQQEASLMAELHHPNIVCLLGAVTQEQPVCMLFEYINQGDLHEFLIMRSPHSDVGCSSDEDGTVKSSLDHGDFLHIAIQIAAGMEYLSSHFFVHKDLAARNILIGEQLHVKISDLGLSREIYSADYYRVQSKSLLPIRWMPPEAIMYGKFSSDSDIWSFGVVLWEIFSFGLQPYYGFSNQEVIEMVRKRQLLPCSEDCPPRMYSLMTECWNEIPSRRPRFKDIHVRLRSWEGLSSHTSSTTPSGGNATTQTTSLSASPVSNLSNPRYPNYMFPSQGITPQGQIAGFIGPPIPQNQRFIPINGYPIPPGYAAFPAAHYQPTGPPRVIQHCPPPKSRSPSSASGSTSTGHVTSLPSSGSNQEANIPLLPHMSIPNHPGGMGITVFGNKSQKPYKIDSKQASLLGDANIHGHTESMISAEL

B1: chIgG1-ROR2-A (antibody, V domains shown)
VH: QSVEESGGRLVTPGTPLTLTCTVSGFSLSSYSMSWVRQAPGKGLEWIGVIYVNSKTWYANWAKGRFTISKTSTTVDLKITSPTTEDTATYFCARGDAGYTTNSWLWGPGTLVTVSS
VL: AFELTQTPASVSEPVGGTVTIKCQASESIDNYCSWYQQKPGQPPKLLIYQAFKLASGVPSRFRGSGSGTQFTLTISDLESDDAATYYCQSYSGISTTAFGGGTEVVVK
In the case of B1, the RFU (total spot intensity) in experiment [1] and in experiment [2] was above 12000 RFU each time.
